In paper PMC5133369 (Experimental & Molecular Medicine, 2016):
Numbering of substitutions follows the chain as printed.

B1: pCTD-2ndS2 scFv-Fc fusion protein (scFv, V domains shown)
VH: EVQLVESGGGLVQPGGSLRLSCAASGFNIKDTYIHWVRQAPGKGLEWVARIYPTNGYTRYADSVKGRFTISADTSKNTAYLQMNSLRAEDTAVYYCSRDRAQWWEYKNAMDVWGQGTLVTVSS
VL: not shown
B2: pCTD-1stS5 scFv-Fc fusion protein (scFv, V domains shown)
VH: B1 VH with D99G, R100P, A101W, Q102P, W103G, W104S, E105H, Y106H, N108Y
VL: not shown
B3: pCTD-S7 scFv-Fc fusion protein (scFv, V domains shown)
VH: EVQLVESGGGLVQPGGSLRLSCAASGFNIKDTYIHWVRQAPGKGLEWVARIYPTNGYTRYADSVKGRFTISADTSKNTAYLQMNSLRAEDTAVYYCSRGISYPWQRGYYYAMDVWGQGTLVTVSS
VL: not shown
B4: PanCTD scFv-Fc fusion protein (scFv, V domains shown)
VH: EVQLVESGGGLVQPGGSLRLSCAASGFNIKDTYIHWVRQAPGKGLEWVARIYPTNGYTRYADSVKGRFTISADTSKNTAYLQMNSLRAEDTAVYYCSRYGRRGVFDYWGQGTLVTVSS
VL: not shown
B5: pCTD-S7S5 scFv-Fc fusion protein (scFv, V domains shown)
VH: EVQLVESGGGLVQPGGSLRLSCAASGFNIKDTYIHWVRQAPGKGLEWVARIYPTNGYTRYADSVKGRFTISADTSKNTAYLQMNSLRAEDTAVYYCSRDPWSRWAKVFDYWGQGTLVTVSS
VL: not shown
B6: pCTD-1stS2 scFv-Fc fusion protein (scFv, V domains shown)
VH: B5 VH with D99G, P100A, W101F, S102W, R103F, W104S, A105R, K106S, V107H
VL: not shown

target: RNA polymerase II (largest subunit, with its C-terminal domain) (Homo sapiens, UniProt P24928); test: far-Western, overlay or dot blot

Binding result, binds:
B1
B2
B3
B4
B5
B6
